21 sequences from a protein production outcome set (Wang et al. 2014) can be followed below.

This series can be described thus: label from the status in PepcDB records.

Regarding “MATRAPASTLRQIPSGIWMLGCVSLLMDISSEIIHSLLPVFMVTTLGASALAVGLIEGAAEATALIVKVFSGVLSDYLGKRKALAVLGYGLGALSKPLFAVAPGVGTILAARLSDRIGKGIRGAPRDALVADIAPAHLRGAAFGLRQALDTVGAFLGPLIAIGLMMLWANDFRAIFWVAVVPGVLSVALLAFGVKEPQTHTGDKRVNPIRRANLARLGPAYWGVVAVGTAFALARFSEAFLILRVQQEGLPLFMAPLVLVTMNAVFAVTAYPFGKLADNCSHDKLLVAGLAVLIVADTVLAVGSHWSIALVGVALWGLHMGMTQGLLATMVADAAPADLRGTAFGVFNLASGLALLAASVMAGWLWDRHGAAATFHAGAGFCVLTIALLIHRLRNRPASGAATR”, the protein production result was “failed”.
Turning to “MATSAKTLQQRMGIIALTWPIFIETLLQSLLGISDIFMLSHYSDNAVAAVGLTTQLMFFMMVMSMMVSTGASILISQNNGAGRTQEATDIGVASVALSLGLAVVMGAAMFFCAHGIIGLFELEPKVAGYGYDYLLICGSLSIGLVMNIAFAAILRSYGFTRSAMLVTLSTGLMNVLGNYIALYSPFGLPVYGVTGVAISTVTSQLMGALIMLAVIRSKHIPLPMQRLNSLPRSTYWSVMRIGLLNAGEMLSYNVAQMTIIYFISQMGTLSLTAYTYGLNISRFIYCFSVALGQAAQIQTGYYVGKQWFDEITVRVQKYCLVGFIVSLAIVLIFFWQRFTIVGWLSENPEVIQLTALLLLGSIALETGRVFNLVIISALKGAGDVAFTVRVGLFSMWGIGVLLAWFFGLYLGYGVLAAWLAVAADEWVRGLIMVQRWRSGRWQRFTRIPPATSA”, the protein production entry was “failed”.
For the sequence “MATSRTQRDVWVYVGIGAMVSALVLFSLVPLVMGLWQPRPAADGVVNGGTPLESQALGYQLVLEREPDNVNALQGLLEIRLQQKNLAAAIAPLERLGQIRTDQVQYRILLAQLKTQLEDNAGAAKVYREILTQSPHNIQALKGLSGLYAQQERPAEAVAIVQNAITQAIKAQTGAPGTVPPDQLTSLQLLLGEIYLSQNRPDQAIAIYEAASKVNGNDFRPVLAQAQVMAQTGKVKEADPFFQQAIMLAPVQYKDPIKNIALQVTNQALANQNGAPETSIPSPAPILKSE”, the protein production entry was “failed”.
For the sequence “MATTKKKPIHVNVDENLKEEAEQLFDDLGLNMTSAITIFLKQSINEQAIPFMINKGNKETLQALKDIKEGNVHGGFSSVEDLMEDLNALEHHHHHH”, the protein production entry was “not failed”.
Regarding “MATVEEIEKYCRNCVSRDFVNGKGLVCKRTRELPDFDEECENFEKDEELLKMAPPKPDDFPVSMTEEELLAEENLPKGVLYASVACILGAVAWSLISVSTGLQMGYMAIGVGFLVGFAMRQGKGIRPVFGLLGAALALISCVLGDFLSIIGFAAKDYDMTFFEVLAGVDYGEIFSVMVKNVVSMSALFYGIAVYEGYKLSFRAQKHPVGGKI”, the protein production result is listed as “failed”.
With “MAVARHETGPFATVSALASQVHPVFMLPPLATSLFGGLLSGGFWPPVAVLHAGAMFFAVYTAHVKDGYVDFHVRGEDDDHPLTGAGCRMALVGAGVGFALCTAAIWLLVGPGAALLTLPTWIIGYTHAPQLDMNPVGATMGYPAGIALALLGGYYAQVTTLTPRAVGLAAVFLLLLTGIKIIDDEQDYDYDRSIQKRTVAVVLGHQRARQLALGLFGVALLGIVGLSVALPGIPPSAAAAALVFGAVAAIAQRGDPETATMLLIRGSYLLLAVLVTAVWFRPLA”, the protein production result is “failed”.
As to “MAVDDSEEGKPAESEAPLDLLQDWEHARAHAVPFSDSLLTECILVDQECVTNTKIKQEVNASSGCNTTPDSNTQDSDKIDYIESMDVCSNVEIESTEDSIVTGLNSGNAEDVDMTPGWRRKRNQKSKKSYIGTKDVLDQTLDKDIPLNKQNRRFPITARPVKRECVKKYERETFENGNERVYSTSSPRGRVYLLNDAAKL”, the protein production result is recorded as “failed”.
For “MAVESAAVGVFDSGVGGLSVLREIRARLPSESLLYVADNAHVPYGEKSAEYIRERCERIGDFLLEQGAKALVLACNTATAAAAAELRERYPQVPLVAMEPAVKPAAAATRNGRVGVLATTGTLKSARFAALLDRFASDVQVFTQPCPGLVERIEAGDLYGPQTRALLERLLAPILEQGCDTLILGCTHYPFVKPLLAELIPAEMAVIDTGAAVARQLERVLSARALLASGQAATPRFWTSALPEEMERILPILWGSPESVGKLVV”, the protein production result is reported as “failed”.
Regarding “MAVEVVYRSSRDPERLFMDKAEADRHDKMLELAERLAEVLHKAVPSLTEQQVEEAGIYMAKNRDVFARAFKSQPDALAELLEGTAAE”, the protein production entry is “not failed”.
As for “MAVQENLLLGAKASKNATLTLVFLSILKGVVGFYSGSASLIADAIHTSLDIFTSLAVWIGLKLSMRGSEEKFPYGYYKADNLVSLFVSIIILFSGVELVREALLNIASPVEIKLQGIALGTAVFSVIAMYALSQYKFKVGKQIDSQALIADALHSYTDVFSSLIVAITIIGSLLGVLWLDSAGVLVISLMIFKLGIGMAKDSILTLMDAWLDKDSIERIRQNVGSIQGVKTVDEIRLRKSGLVVFGEIEIEIEGDASLKRVEMLFEEIEKTVKNEVKNLEHLVVNVKPEKISVMKIAVPVLMQEGLHSKVSRHFSKAPYFIFIELENNDIISWDVSENPAAGLEKKKGLKAAEFLKDQGVNVLIAGEIGEAPFHTLRDNFVKLLQMPEEIEDVEQVVKKVSELNTLTAPTE”, the protein production entry is given as “failed”.
Next, “MAVTRRLLMAVVGLFSLLVYFTAAYVGYLLLLPVWDSRPSPLMAALFVLGTAIALGVVNYWAATAQLKRSLNAVELPRARAPEAYHRLDALVDQMNVETPTLLLAELPVPNAFAIGGGTGTIVVDRRLFRLLSAAEFEGLLAHELAHLETRDALVQTVAYSFVQTLVGLIGLALFPIVVLTGGIARSLALLRGDPSSWSRSWLGRAQRYSLQVVAGLGFAVTLLLLGYSRRRELAADDRAVEITGNPVGLARALAKIEQASTPDPGLLRQVYVHSEADNELSRLLSTHPPIDERMQRLQDRAQYGNFTKSSERPSSRR”: “failed”.
Consider “MAVYANTSVQDFYEFWLEEVKKKSLSYNSYYSFKKTVQNYILPLYGRLSMGKLRKNHVKRIYKKTYETSPSVAKIVKTVLTTSFKYALRYGYVEEDYVTGLKWNRVILEHHHHHH”, for which the protein production result was “failed”.
On to “MAWNQPGNNGQDRDPWGSSKPGGNSEGNGNKGGRDQGPPDLDDIFRKLSKKLGGLGGGKGTGSGGGSSSQGPRPQLGGRVVTIAAAAIVIIWAASGFYTIKEAERGVVTRFGKFSHLVEPGLNWKPTFIDEVKPVNVEAVRELAASGVMLTSDENVVRVEMNVQYRVTNPEKYLYSVTSPDDSLRQATDSALRGVIGKYTMDRILTEGRTVIRSDTQRELEETIRPYDMGITLLDVNFQAARPPEEVKAAFDDAIAARENEQQYIREAEAYTNEVQPRANGQAQRILEEARAYKAQTILEAQGEVARFAKLLPEYKAAPEITRERLYIETMEKVLGNTRKVLVNDKGGNLMVLPLDQMLKGGNAPAAKSDNGASNLLRLPPASSSTTSGASNTSSTSQGDIMDQRRANAQRNDYQRQGE”, for which the protein production entry was “failed”.
For “MAYDSRLPEQRDPATDPSANYDYQGDSVNRPDLVSALEQRVDGDVRFDTYTRELFATDASAYEQLPIGVVSPVSTEDVVAVMEYCAAEDIPVLPRGGGTSLAGQAVNEAVVLDFKRYMDE”, the protein production entry is on record as “not failed”.
Consider “MAYITYQQYLDLYGTCPISEEEFPVYAGLASDMIDSITRYRIVEGGGISALPSILQTLVQKAAAAQVLYFTQIGLETVLTGQAGQSFTVGKVSVSGGALSSTTTKPGALMVSPFALSLLEQTPLMERGVHVCSDRFLNPFWGILEHHHHHH”, for which the protein production entry is listed as “failed”.
The value for “MAYNPKILQKPKEGEEITIKDNKLHVPNHPIIPFIEGDGIGSDITPAMIKVVDSAVQKAYKGEKKIAWYEVFVGEKCYQKFKDYKELSPEEQWLLPDTIEAINHYKVSIKGPLTTPIGEGFRSLNVALRQKMDLYVCLRPVRWYGSPSPVKEPQKVDMVIFRENSEDIYAGIEWQEGSAEAKKLIHFLQNELKVKKIRFPESSGIGVKPISKEGTERLVRKAIEYAIDNDKPSVTFVHKGNIMKYTEGAFMKWGYALAQKEFNAQVIDKGPWCSLKNPKNGKEIIIKDMIADAFLQQILLRPSEYSVIATMNLNGDYISDALAAMVGGIGIAPGANLNDTVGMFEATHGTAPKYAGLDKVNPGSIILSAEMMLRHMGWVEAADLIVSAMEKAIKSKKVTYDFARLMDGAKEVKCSEFASVMIENM” was “failed”; that for “MAYSACFLHQSALASSAARSSSSSSSQRHVSLSKPVQIICKAQQSHEDDNSAVSRRLALTLLVGAAAVGSKVSPADAAYGEAANVFGKPKTNTDFLPYNGDGFKVQVPAKWNPSKEIEYPGQVLRFEDNFDATSNLNVMVTPTDKKSITDYGSPEEFLSQVNYLLGKQAYFGETASEGGFDNNAVATANILESSSQEVGGKPYYYLSVLTRTADGDEGGKHQLITATVNGGKLYICKAQAGDKRWFKGARKFVESAATSFSVA” was “failed”.
With “MAYTDPAQRNQVTVLQVGYSRQEEGDESAMRANCTCTLVRCRDGTNIIVDTLTAWDGDHLRSLLGQQGLGVDDIHVVVCSHGHSDHIGCNYLFQKARMHLVGACASHHDLYMDHLGSGNPDEQLALDSNAEVVVRRSPGHTLSCVSVLVENSQLGGRVGITGDLFERREDIDDENIWMDAGSENEKVQREERSKMAQLCEFIIPGHGPMFSVTQSMRCKLKEDATSNT”, the protein production entry was “failed”.
As to “MAYVLTETSAGYALLKASDKKIYKSSSLIQDLDSSDKVLKEFKIAAFSKFNSAANALEEANSIIEGKVSSQLEKLLEEIKKDKKSTLIVSETKLANAINKLGLNFNVVSDAVTLDIYRAIKEYLPELLPGMSDNDLSKMSLGLAHSIGRHKLKFSADKVDVMIIQAIALLDDLDKELNTYAMRCKEWYGWHFPELAKIVTDSVAYARIILTMGIRSKASETDLSEILPEEIEERVKTAAEVSMGTEITQTDLDNINALAEQIVEFAAYREQLSNYLSARMKAIAPNLTQLVGELVGARLIAHSGSLISLAKSPASTIQILGAEKALFRALKTKHDTPKYGLLYHASLVGQATGKNKGKIARVLAAKAAVSLRYDALAEDRDDSGDIGLESRAKVENRLSQLEGRDLRTTPKVVREAKKVEMTEARAYNADADTAKAASDSESDSDDEEEEKKEKKEKKRKRDDDEDSKDSKKAKKEKKDKKEKKEKKEKKEKKEKKEKKEKKSKKEKKEKK”, the protein production result was “failed”.
Regarding “MCAEFVERRLAAILAADVVGYSRLLEANEEETLNALRQHRRELFDPAVAIHGGHIIKVMGDGFLVEFGSVLSAARCAVEIQRGMLERNIGIPGDRHFAFRIGLNLGDIVFDEDDFHGDGINVAVRLQALAAPGGIACSAAVRHEVANKLDLGFADQGAMTVKNISRPVHVYFADWGNAPSSEEVPLTAGGHTRAPVNKPSVAVLPFANISNDPEQDFFSDGITEDLITDLSNVSGLFVLSRNTVFTWKGRSENLQRIAAELGVAYIVEGSVRKAGNQVRINAELIEAASDGHVWAARYDRDLTDIFEMQDEIVKAIVGQLKVKLLPEEKRAIEQAPTESVEAYTHFLRGREYYHIASRSNHLMARQSFARAIELDPGYARAYAGIAVCDARLRSQFGAEIPVEDILANTATALVIDPNLAEAYAAKGFALAVAGNRTEAVSAFAQALSLDANCHEANRYYAEFCVTEGQFELAATHFQRAMEIKPADYGAPIMLVNVLRSLGQIDKASSYARIALKRAEEELRLHPENANVACLGATALAFLGVRDTALEWLARSLATDPDDINIQYNAACTYALLGEIDRAIDLLEVWMPQVGIEMRLWFKNDSDLDPIRSHPRYLKLVSLSE”, the protein production result is reported as “failed”.
Next, “MCDYDEPLYLISVVAKILGVHPQTLRQYEKEGLIEPSRTDGKMRLYSQRDMDKIKTILRLTRDMGVNLAGVDIILRLKEKLDELDNLNKELQDALHKHSKNTKTPTKNLNTPTNFYELILFKK”: “failed”.
